Consider one molecule from patent publication US20170305985A1 (Stanford University, published 2017).

The target in this experiment is Met receptor on Madine-Darby canine kidney (MDCK) cells (canine (MDCK cells), UniProt Q75ZY9 25-1382). The experiment is described as follows: cell-based or functional assay.

B1: recombinant soluble Aras-4 (ligand)
chain: YAEGQGKRRNTIHEFKKSAKTTLIKIDPALRIKTEKANTADQCANRCTRSKGLPFTCKAFVFDKARKRCLWFPFNSMSSGVKKEFGHEFDLYENKAYIRDCIIGRGRNYRGTVSITKSGIKCQPWSAMIPHEHSFLPSSYRGEDLRENYCRNPRGEEGGPWCYTSDPEVRYEVCDIPQCSEVE
For the molecule B1, the “inhibition of HGF-induced activation of Met, MDCK cells” value is about 5 fold lower concentration.
